Laboratory results as given in article PMC11564117, “Control of mitophagy initiation and progression by the TBK1 adaptors NAP1 and SINTBAD” (Nature Structural & Molecular Biology, 2024).

Biological target: T1, SINTBAD–mCherry (UniProt A7MCY6 1-615)
T1 construct: the legend says SINTBAD-mCherry; also called mCherry–SINTBAD; similar to NAP1 TBK1 adaptor; source: Sf9 insect cells, purified (GST-batch protocol); not shown: mCherry, C-terminal, kept
Assay: microscopy-based bead assay; Figs. 5b, 7d, 7f, Extended Data Fig. 9b: GST–4×Ub on glutathione beads; OPTN (mCherry-tagged or unlabeled) and GFP–TBK1 250 nM; NAP1, MBP–NAP1 or SINTBAD–mCherry 100 nM to 10 µM; unlabeled NDP52 250 nM where indicated; 25 mM Tris-HCl pH 7.4, 150 mM NaCl, 1 mM DTT; Fig. 5b without ATP, Fig. 7f with or without ATP/MgCl2; 30 min; confocal imaging
Settings: both partners purified

T1 sequence (A7MCY6 whole entry): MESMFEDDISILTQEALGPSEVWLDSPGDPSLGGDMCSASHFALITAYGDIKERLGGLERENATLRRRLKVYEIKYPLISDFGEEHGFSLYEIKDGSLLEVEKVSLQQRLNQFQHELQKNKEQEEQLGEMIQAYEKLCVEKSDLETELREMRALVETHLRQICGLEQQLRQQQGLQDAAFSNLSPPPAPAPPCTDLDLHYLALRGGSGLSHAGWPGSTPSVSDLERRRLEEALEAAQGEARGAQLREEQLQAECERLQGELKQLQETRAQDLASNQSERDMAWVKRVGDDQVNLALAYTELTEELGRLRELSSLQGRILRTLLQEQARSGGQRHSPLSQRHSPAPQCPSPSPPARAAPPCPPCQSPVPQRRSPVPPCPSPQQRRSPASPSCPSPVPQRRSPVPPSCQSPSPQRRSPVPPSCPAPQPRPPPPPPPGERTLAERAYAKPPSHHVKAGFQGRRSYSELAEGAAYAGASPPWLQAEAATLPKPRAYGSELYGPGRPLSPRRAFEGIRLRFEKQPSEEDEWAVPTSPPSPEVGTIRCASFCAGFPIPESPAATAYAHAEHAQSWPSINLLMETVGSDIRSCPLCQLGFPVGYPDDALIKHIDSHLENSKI

B1: NDP52 (unlabeled) (natural protein, human, UniProt Q13137 1-446, looked up)
chain: MEETIKDPPTSAVLLDHCHFSQVIFNSVEKFYIPGGDVTCHYTFTQHFIPRRKDWIGIFRVGWKTTREYYTFMWVTLPIDLNNKSAKQQEVQFKAYYLPKDDEYYQFCYVDEDGVVRGASIPFQFRPENEEDILVVTTQGEVEEIEQHNKELCKENQELKDSCISLQKQNSDMQAELQKKQEELETLQSINKKLELKVKEQKDYWETELLQLKEQNQKMSSENEKMGIRVDQLQAQLSTQEKEMEKLVQGDQDKTEQLEQLKKENDHLFLSLTEQRKDQKKLEQTVEQMKQNETTAMKKQQELMDENFDLSKRLSENEIICNALQRQKERLEGENDLLKRENSRLLSYMGLDFNSLPYQVPTSDEGGARQNPGLAYGNPYSGIQESSSPSPLSIKKCPICKADDICDHTLEQQQMQPLCFNCPICDKIFPATEKQIFEDHVFCHSL
notes: NDP52 (CALCOCO2), human cDNA in a pGST2 vector with N-terminal GST tag and TEV site; Called 'unlabeled NDP52' in the bead assays; also called nuclear dot protein 52; CALCOCO2; source: E. coli Rosetta pLysS, purified (GST-batch protocol)
binding result: binds
